Values joined by “and” are separate entries in the source; they are usually repeats but may differ in a detail not shown here. Equal entries are not always repeated.

Experimental findings from patent US20220175920A1 are described below.

For experiment [1], the target named is human CD40 ectodomain human Fc fusion protein (human) (UniProt P25942). As to the kind of experiment: competition flow cytometry: mouse mAb titrated into 2 ug/ml human CD40 ectodomain-human Fc, 1 h on ice, then added to human CD40L-transfected L cells; cell-bound CD40-Fc detected with anti-IgG-PE; blocked ligand: CD40L on L cells [left panel]. A general note: In flow cytometry, cells or beads pass a laser one at a time.
Sequence of human CD40 ectodomain human Fc fusion protein (human) (P25942 21-193): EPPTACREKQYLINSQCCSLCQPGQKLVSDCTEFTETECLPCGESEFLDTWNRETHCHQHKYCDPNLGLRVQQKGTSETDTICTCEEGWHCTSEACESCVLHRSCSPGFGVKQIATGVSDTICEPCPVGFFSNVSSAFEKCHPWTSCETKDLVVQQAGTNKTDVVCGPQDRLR

For experiment [2], the target named is human CD40 on cells (B cells, MDDCs, stably transfected CHO cells) (human) (UniProt P25942). Kind of experiment: cell-based or functional assay.
Sequence of human CD40 on cells (B cells, MDDCs, stably transfected CHO cells) (human) (P25942 21-277): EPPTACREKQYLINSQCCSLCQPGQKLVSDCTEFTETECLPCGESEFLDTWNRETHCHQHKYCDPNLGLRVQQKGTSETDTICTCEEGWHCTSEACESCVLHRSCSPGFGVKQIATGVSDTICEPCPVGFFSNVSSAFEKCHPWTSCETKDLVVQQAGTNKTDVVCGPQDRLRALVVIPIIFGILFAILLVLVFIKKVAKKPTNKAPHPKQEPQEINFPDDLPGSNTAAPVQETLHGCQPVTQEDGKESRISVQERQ

With 12E12 (antibody), in experiment [1], the IC50 (read off the curve) was determined as 0.1 µg/mL.
Consider MEGACD40L (Mega sCD40L) (ligand), for which, in experiment [2], the EC50 (nM) IL-12 p40, MDDC secretion is > 1 nM and < 10 nM; the EC50 (nM) IL-15, MDDC secretion is > 1 nM and < 10 nM; the EC50 (nM) TNFα, MDDC secretion was > 1 nM and < 10 nM; the EC50/11B6-CD40L, IL-12 p40 was found to be 100. Besides, in experiment [2], the EC50/11B6-CD40L, IL-15 came to 100 and the EC50/11B6-CD40L, TNFα was determined as 100.
In experiment [2], “human IgG4 control mAb with CD40L fused to the L chain” came in with an EC50 (nM) B cell: 50% of maximum B cell proliferation (FIG. 10B) greater than 10 nM; a fold less active in inducing B cell proliferation than the 11B6 and 12B4-CD40L fusion proteins of 10 fold.
